Square brackets hold non-standard residues; d marks the D form. Ends that are not written are not given here. * marks the point of attachment. Trp(6-Br) = N[C@@H](Cc1c[nH]c2cc(Br)ccc12)C(=O)O; Trp(6-Cl) = N[C@@H](Cc1c[nH]c2cc(Cl)ccc12)C(=O)O; Trp(6-F) = N[C@@H](Cc1c[nH]c2cc(F)ccc12)C(=O)O; Trp(6-Me) = Cc1ccc2c(C[C@H](N)C(=O)O)c[nH]c2c1; hArg = N=C(N)NCCCC[C@H](N)C(=O)O; Pentanoyl = CCCCC(=O)*
Legend:
[1] = biological target: T1, His-tagged, full-length PCSK9 (human, UniProt Q8NBP7 31-692); assay: TR-FRET competition; His-PCSK9, competitor EGF(A)-Fc
T1 construct: The secreted protein is autocleaved into a prodomain and a catalytic/Cys-rich chain that starts at S153; also called His-PCSK9
T1 sequence (Q8NBP7 other isoform, or with tags, fused parts or gaps limits assumed): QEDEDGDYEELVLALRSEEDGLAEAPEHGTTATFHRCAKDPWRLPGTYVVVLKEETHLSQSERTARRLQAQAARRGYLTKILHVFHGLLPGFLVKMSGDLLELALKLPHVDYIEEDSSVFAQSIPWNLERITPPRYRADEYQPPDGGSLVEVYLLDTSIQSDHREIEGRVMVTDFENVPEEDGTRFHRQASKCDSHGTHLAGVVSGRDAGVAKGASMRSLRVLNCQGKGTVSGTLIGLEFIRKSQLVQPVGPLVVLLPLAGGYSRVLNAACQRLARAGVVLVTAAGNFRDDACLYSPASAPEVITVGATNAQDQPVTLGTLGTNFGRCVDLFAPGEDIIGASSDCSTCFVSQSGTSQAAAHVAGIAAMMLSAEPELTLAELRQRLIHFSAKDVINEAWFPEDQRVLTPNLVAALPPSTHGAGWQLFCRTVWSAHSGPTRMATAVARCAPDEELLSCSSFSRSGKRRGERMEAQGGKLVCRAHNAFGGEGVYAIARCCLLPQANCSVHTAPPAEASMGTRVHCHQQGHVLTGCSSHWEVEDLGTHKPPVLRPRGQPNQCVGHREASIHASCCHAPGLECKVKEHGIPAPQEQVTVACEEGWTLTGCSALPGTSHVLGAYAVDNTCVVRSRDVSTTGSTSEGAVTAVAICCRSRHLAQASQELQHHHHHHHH
Description: (§1) Signal generation in the PCSK9 binding assays was dependent upon the binding interaction to bring into close proximity the His-tag on the PCSK9 and the Fc-tag on the ligand. Anti-His-APC was bound to the His-tag, and anti-Fc-europium was bound to the Fc-tag.
(§2) Compounds were solubilized and dilutions were prepared in DMSO. […] The plate was centrifuged to mix the well contents and allowed to incubate for 30 min. […] The normalized TR-FRET ratios were plotted as a function of the compound concentrations, and the IC₅₀ values were determined using a 4-parameter logistic regression.

His-tagged PCSK9Δhelix = biological target: T2, His-tagged PCSK9Δhelix (human, UniProt Q8NBP7 31-152; Q8NBP7 168-692); assay: TR-FRET competition; His-PCSK9Δhelix, competitor Ab20
T2 construct: Construct M1-Q692 with engineered TEV site, cut by TEV protease; new N-terminus of the catalytic domain is S-A168; also called His-PCSK9Δhelix
T2 sequence (Q8NBP7 31-152, stated change not applied, chain 1 of 2): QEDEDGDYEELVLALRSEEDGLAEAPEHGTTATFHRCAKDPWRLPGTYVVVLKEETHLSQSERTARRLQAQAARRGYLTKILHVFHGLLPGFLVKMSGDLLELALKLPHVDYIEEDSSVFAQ
T2 sequence (Q8NBP7 other isoform, or with tags, fused parts or gaps mutant, chain 2 of 2): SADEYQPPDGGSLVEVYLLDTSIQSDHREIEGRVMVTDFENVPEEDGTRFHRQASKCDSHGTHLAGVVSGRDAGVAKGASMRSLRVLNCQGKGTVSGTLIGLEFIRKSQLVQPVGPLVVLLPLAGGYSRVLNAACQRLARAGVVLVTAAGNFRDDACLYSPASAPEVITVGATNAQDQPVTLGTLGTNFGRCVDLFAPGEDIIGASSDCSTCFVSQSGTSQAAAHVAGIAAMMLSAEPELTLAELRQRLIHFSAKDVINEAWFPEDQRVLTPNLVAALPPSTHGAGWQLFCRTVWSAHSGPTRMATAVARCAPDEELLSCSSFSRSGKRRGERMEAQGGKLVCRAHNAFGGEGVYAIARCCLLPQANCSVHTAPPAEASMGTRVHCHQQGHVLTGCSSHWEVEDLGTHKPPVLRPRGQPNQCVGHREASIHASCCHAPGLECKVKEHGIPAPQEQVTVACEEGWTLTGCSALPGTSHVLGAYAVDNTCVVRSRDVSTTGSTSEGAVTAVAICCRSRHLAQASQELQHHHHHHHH
Description: as §1, §2

B1: Compound 186 (peptide)
peptide: Pentanoyl-[Trp(6-Cl)]NLVRIGLTR-NH2
SMILES: CCCCC(=O)N[C@@H](Cc1c[nH]c2cc(Cl)ccc12)C(=O)N[C@@H](CC(N)=O)C(=O)N[C@@H](CC(C)C)C(=O)N[C@H](C(=O)N[C@@H](CCCNC(=N)N)C(=O)N[C@H](C(=O)NCC(=O)N[C@@H](CC(C)C)C(=O)N[C@H](C(=O)N[C@@H](CCCNC(=N)N)C(N)=O)[C@@H](C)O)[C@@H](C)CC)C(C)C
- IC50 [1]: 31 µM
- IC50 (His-tagged PCSK9Δhelix): 11 µM

B2: Compound 139 (peptide)
peptide: WNLVRIGLLR
modifications: also: further groups not given here
notes: Structure printed only as a drawing
- IC50 [1]: ≥ 50 µM
- IC50 (His-tagged PCSK9Δhelix): 19 µM

B3: Compound 143 (peptide)
peptide: WNLVRIGLLR
modifications: also: further groups not given here
notes: as for B2
- IC50 [1]: ≥ 50 µM
- IC50 (His-tagged PCSK9Δhelix): 23 µM

B4: Compound 145 (peptide)
peptide: WNLVRIGLLR
modifications: also: further groups not given here
notes: as for B2
- IC50 [1]: 7.3 µM
- IC50 (His-tagged PCSK9Δhelix): 2.2 µM

B5: Compound 131 (peptide)
peptide: WNLVRIGLLR
modifications: also: further groups not given here
notes: as for B2
- IC50 [1]: ≥ 50 µM
- IC50 (His-tagged PCSK9Δhelix): 6.7 µM

B6: Compound 191 (peptide)
peptide: Pentanoyl-WNLV[hArg]IGLLR-NH2
notes: also called n-BuC(O)-WNLV(homoR)IGLLR-NH2
- IC50 [1]: ≥ 50 µM
- IC50 (His-tagged PCSK9Δhelix): 1.3 µM

B7: Compound 150 (peptide)
peptide: WNLVRIGLLR
modifications: also: further groups not given here
notes: as for B2
- IC50 [1]: 22 µM
- IC50 (His-tagged PCSK9Δhelix): 8.2 µM

B8: Compound 153 (peptide)
peptide: Ac-MDSFPGWNLVRIGLLR-NH2
- IC50 [1]: 12 µM
- IC50 (His-tagged PCSK9Δhelix): 50 µM

B9: Compound 141 (peptide)
peptide: WNLVRIGLLR
modifications: also: further groups not given here
notes: as for B2
- IC50 [1]: ≥ 50 µM
- IC50 (His-tagged PCSK9Δhelix): 36 µM

B10: Compound 138 (peptide)
peptide: WNLVRIGLLR
modifications: also: further groups not given here
notes: as for B2
- IC50 [1]: 48 µM
- IC50 (His-tagged PCSK9Δhelix): 4.9 µM

B11: Compound 124 (peptide)
peptide: Ac-GLMPWNLVRIGLLR-NH2
- IC50 [1]: ≥ 50 µM
- IC50 (His-tagged PCSK9Δhelix): 3.9 µM

B12: Compound 125 (peptide)
peptide: Ac-GGMPWNLVRIGLLR-NH2
- IC50 [1]: ≥ 50 µM
- IC50 (His-tagged PCSK9Δhelix): 7 µM

B13: Compound 158 (peptide)
peptide: Ac-DLMPWNLKRIGLLR-NH2
- IC50 [1]: ≥ 50 µM
- IC50 (His-tagged PCSK9Δhelix): 12 µM

B14: Compound 155 (peptide)
peptide: Ac-DSYPGWNLVRIGLLR-NH2
- IC50 [1]: 11 µM
- IC50 (His-tagged PCSK9Δhelix): 50 µM

B15: Compound 156 (peptide)
peptide: Ac-ESYPGWNLVRIGLLR-NH2
- IC50 [1]: 11 µM
- IC50 (His-tagged PCSK9Δhelix): 50 µM

B16: Compound 148 (peptide)
peptide: WNLVRIGLLR
modifications: also: further groups not given here
notes: as for B2
- IC50 [1]: 19 µM
- IC50 (His-tagged PCSK9Δhelix): 11 µM

B17: Compound 154 (peptide)
peptide: Ac-SFAFPGWNLVRIGLLR-NH2
- IC50 [1]: 11 µM
- IC50 (His-tagged PCSK9Δhelix): 50 µM

B18: Compound 187 (peptide)
peptide: Pentanoyl-[Trp(6-Br)]NLVRIGLTR-NH2
SMILES: CCCCC(=O)N[C@@H](Cc1c[nH]c2cc(Br)ccc12)C(=O)N[C@@H](CC(N)=O)C(=O)N[C@@H](CC(C)C)C(=O)N[C@H](C(=O)N[C@@H](CCCNC(=N)N)C(=O)N[C@H](C(=O)NCC(=O)N[C@@H](CC(C)C)C(=O)N[C@H](C(=O)N[C@@H](CCCNC(=N)N)C(N)=O)[C@@H](C)O)[C@@H](C)CC)C(C)C
- IC50 [1]: 26 µM
- IC50 (His-tagged PCSK9Δhelix): 36 µM

B19: Compound 132 (peptide)
peptide: WNLVRIGLLR
modifications: also: further groups not given here
notes: as for B2
- IC50 [1]: ≥ 50 µM
- IC50 (His-tagged PCSK9Δhelix): 9 µM

B20: Compound 152 (peptide)
peptide: Pentanoyl-WNLVRIGLLR
- IC50 [1]: 43 µM
- IC50 (His-tagged PCSK9Δhelix): 14 µM

B21: Compound 137 (peptide)
peptide: WNLVRIGLLR
modifications: also: further groups not given here
notes: as for B2
- IC50 [1]: ≥ 50 µM
- IC50 (His-tagged PCSK9Δhelix): 6.7 µM

B22: Compound 133 (peptide)
peptide: WNLVRIGLLR
modifications: also: further groups not given here
notes: as for B2
- IC50 [1]: ≥ 50 µM
- IC50 (His-tagged PCSK9Δhelix): 17 µM

B23: Compound 126 (peptide)
peptide: WNLVRIGLLR
modifications: also: further groups not given here
notes: as for B2
- IC50 [1]: ≥ 50 µM
- IC50 (His-tagged PCSK9Δhelix): 19 µM

B24: Compound 128 (peptide)
peptide: WNLVRIGLLR
modifications: also: further groups not given here
notes: as for B2
- IC50 [1]: ≥ 50 µM
- IC50 (His-tagged PCSK9Δhelix): 7.5 µM

B25: Compound 136 (peptide)
peptide: WNLVRIGLLR
modifications: also: further groups not given here
notes: as for B2
- IC50 [1]: ≥ 50 µM
- IC50 (His-tagged PCSK9Δhelix): 9 µM

B26: Compound 144 (peptide)
peptide: WNLVRIGLLR
modifications: also: further groups not given here
notes: as for B2
- IC50 [1]: 9.7 µM
- IC50 (His-tagged PCSK9Δhelix): 4 µM

B27: Compound 140 (peptide)
peptide: WNLVRIGLLR
modifications: also: further groups not given here
notes: as for B2
- IC50 [1]: ≥ 50 µM
- IC50 (His-tagged PCSK9Δhelix): 26 µM

B28: Compound 142 (peptide)
peptide: WNLVRIGLLR
modifications: also: further groups not given here
notes: as for B2
- IC50 [1]: ≥ 50 µM
- IC50 (His-tagged PCSK9Δhelix): 15 µM

B29: Compound 130 (peptide)
peptide: WNLVRIGLLR
modifications: also: further groups not given here
notes: as for B2
- IC50 [1]: ≥ 50 µM
- IC50 (His-tagged PCSK9Δhelix): 8.6 µM

B30: Compound 135 (peptide)
peptide: WNLVRIGLLR
modifications: also: further groups not given here
notes: as for B2
- IC50 [1]: ≥ 50 µM
- IC50 (His-tagged PCSK9Δhelix): 10 µM

B31: Compound 149 (peptide)
peptide: WNLVRIGLLR
modifications: also: further groups not given here
notes: as for B2
- IC50 [1]: 11 µM
- IC50 (His-tagged PCSK9Δhelix): 8.9 µM

B32: Compound 174 (peptide)
peptide: Pentanoyl-[Trp(6-F)]NLVRIGLTR-NH2
SMILES: CCCCC(=O)N[C@@H](Cc1c[nH]c2cc(F)ccc12)C(=O)N[C@@H](CC(N)=O)C(=O)N[C@@H](CC(C)C)C(=O)N[C@H](C(=O)N[C@@H](CCCNC(=N)N)C(=O)N[C@H](C(=O)NCC(=O)N[C@@H](CC(C)C)C(=O)N[C@H](C(=O)N[C@@H](CCCNC(=N)N)C(N)=O)[C@@H](C)O)[C@@H](C)CC)C(C)C
- IC50 [1]: ≥ 50 µM
- IC50 (His-tagged PCSK9Δhelix): 6.2 µM

B33: Compound 146 (peptide)
peptide: WNLVRIGLLR
modifications: also: further groups not given here
notes: as for B2
- IC50 [1]: 11 µM
- IC50 (His-tagged PCSK9Δhelix): 1.7 µM

B34: Compound 160 (peptide)
peptide: Ac-DLMPWNLVRIGLPR-NH2
- IC50 [1]: ≥ 50 µM
- IC50 (His-tagged PCSK9Δhelix): 19 µM

B35: Compound 151 (peptide)
peptide: WNLVRIGLLR
modifications: also: further groups not given here
notes: as for B2
- IC50 [1]: 6.9 µM
- IC50 (His-tagged PCSK9Δhelix): 2.5 µM

B36: Compound 189 (peptide)
peptide: WNLVRIGLTR
modifications: also: further groups not given here
notes: as for B2
- IC50 [1]: 38 µM
- IC50 (His-tagged PCSK9Δhelix): 12 µM

B37: Compound 190 (peptide)
peptide: WNLVRIGLTR
modifications: also: further groups not given here
notes: as for B2
- IC50 [1]: 30 µM
- IC50 (His-tagged PCSK9Δhelix): 7 µM

B38: Compound 175 (peptide)
peptide: Pentanoyl-[Trp(6-Me)]NLVRIGLTR-NH2
SMILES: CCCCC(=O)N[C@@H](Cc1c[nH]c2cc(C)ccc12)C(=O)N[C@@H](CC(N)=O)C(=O)N[C@@H](CC(C)C)C(=O)N[C@H](C(=O)N[C@@H](CCCNC(=N)N)C(=O)N[C@H](C(=O)NCC(=O)N[C@@H](CC(C)C)C(=O)N[C@H](C(=O)N[C@@H](CCCNC(=N)N)C(N)=O)[C@@H](C)O)[C@@H](C)CC)C(C)C
- IC50 [1]: ≥ 50 µM
- IC50 (His-tagged PCSK9Δhelix): 39 µM

B39: Compound 129 (peptide)
peptide: WNLVRIGLLR
modifications: also: further groups not given here
notes: as for B2
- IC50 [1]: ≥ 50 µM
- IC50 (His-tagged PCSK9Δhelix): 23 µM

B40: Compound 134 (peptide)
peptide: WNLVRIGLLR
modifications: also: further groups not given here
notes: as for B2
- IC50 [1]: ≥ 50 µM
- IC50 (His-tagged PCSK9Δhelix): 4.2 µM

B41: Compound 147 (peptide)
peptide: WNLVRIGLLR
modifications: also: further groups not given here
notes: as for B2
- IC50 [1]: 2.6 µM
- IC50 (His-tagged PCSK9Δhelix): 0.41 µM

B42: Compound 127 (peptide)
peptide: WNLVRIGLLR
modifications: also: further groups not given here
notes: as for B2
- IC50 [1]: ≥ 50 µM
- IC50 (His-tagged PCSK9Δhelix): 29 µM

Reference: patent US20200283478A1 (Genentech, published 2020)
